From patent publication US20240309109A1 (MorphoSys, published 2024) come the findings set out here.

Residue numbers refer to the chain shown, from its start.

The target of test [1] is T1, human CD38 on cells (human, UniProt P28907 1-300).
T1 construct: The cell that carried CD38 is named under assay in each row; also called CD38 on Raji, RPMI8226, OPM2, CCRF-CEM, human erythrocytes, CD38 CHO-K1 transfectants
Kind of test: FACS Scatchard, IgG1 on Raji cells.

The target of test [2] is T2, human CD38 Fc-fusion aa 45-300 (human, UniProt P28907 45-300).
T2 construct: Expressed in HEK293 behind a human Vkappa leader, which is left out here; also called CD38-Fc fusion protein; CD38 Fc-Fusion protein
Kind of test: SPR (Biacore), Fab on immobilized CD38 Fc-fusion. (In general: SPR reads the build-up and loss of mass on a sensor chip optically.)

Test [3] concerns the target T2, human CD38 Fc-fusion aa 45-300. Kind of test: ELISA on CD38 Fc-fusion protein, IgG format. On the technique in general: ELISA stands for enzyme-linked immunosorbent assay.
The target of test [4] is T1, human CD38 on cells. Kind of test: FACS Scatchard on OPM2 cells, IgG format.
In test [5] the target is T1, human CD38 on cells. Description: FACS Scatchard on RPMI8226 cells.
Test [6] deals with CD38 (antigen of the Bioveris affinity determination) (Homo sapiens (Human), UniProt P28907 45-300, limits assumed). Description: Bioveris, Fab format.
The target in test [7] is T2, human CD38 Fc-fusion aa 45-300. Kind of test: SPR (Biacore), Fab format.

B1: MOR03081 IgG1 (antibody, V domains shown)
VH: QVQLVESGGGLVQPGGSLRLSCAASGFTFSSYALHWVRQAPGKGLEWVSSISGLGSTTYYADSVKGRFTISRDNSKNTLYLQMNSLRAEDTAVYYCARYHYEYHYFSSGFDNWGQGTLVTVSS
VL: DIVLTQSPATLSLSPGERATLSCRASQTGSTSYLAWYQQKPGQAPRLLIYDASKRATGVPARFSGSGSGTDFTLTISSLEPEDFATYYCHQYYNVPHTFGQGTKVEIKR
On to B1, for which the Kd (in general, the constant that tells how readily two partners part at equilibrium) with human CD38 on cells [1] was 2.5 nM.

B2: MOR03102 Fab (Fab, V domains shown)
VH: QVQLQESGPGLVKPGETLSLTCTVSGGSISGNYWSWIRQAPGKGLEWIGDYHGSTYYNPSLKGRVTISVDTSKNQFSLKLSSVTAEDTAVYYCAREQYHWGLAWTGFDNWGQGTLVTVSS
VL: DIELTQPPSVSVAPGQTARISCSGDNLGHYYVSWYQQKPGQAPVLVIYDDSDRPSGIPERFSGSNSGNTATLTISGTQAEDEADYYCGAYAMHMTVFGGGTKLTVLG
notes: Fab format
B2 had a Kd in test [2] of 64 nM.

B3: MOR03102 IgG1 (antibody, V domains shown)
VH: B2 VH
VL: B2 VL
On to B3, for which the Kd with human CD38 on cells [1] is 5 nM.

B4: MOR03089 Fab (Fab, V domains shown)
VH: QVQLKESGPALVKPTQTLTLTCTFSGFSLSSDGMGVGWIRQPPGKALEWLALIDWDDDKRYSTSLKTRLTISKDTSKNQVVLTMTNMDPVDTATYYCARFNWFYRLAFVNPDVWGQGTLVTVSS
VL: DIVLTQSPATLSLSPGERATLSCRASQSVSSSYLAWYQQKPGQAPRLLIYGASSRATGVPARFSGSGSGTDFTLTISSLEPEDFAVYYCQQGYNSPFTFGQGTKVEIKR
notes: Fab format
Turning to B4, the Kd in test [2] was found to be 340 nM.

B5: MOR03085 Fab (Fab, V domains shown)
VH: QVQLVQSGAEVKKPGASVKVSCKASGYTFTGYYINWVRQAPGQGLEWMGWIFPNGGSTGYAQKFQGRVTMTRDTSISTAYMELSSLRSEDTAVYYCARGNIFIFDYWGQGTLVTVSS
VL: DIVLTQPPSVSGAPGQRVTISCSGSSSNIGNNYVSWYQQLPGTAPKLLIYGDDQRPSGVPDRFSGSKSGTSASLAITGLQSEDEADYYCQSYGTFSSFVFGGGTKLTVLG
notes: Fab format
On to B5, for which the Kd in test [2] was found to be 122 nM.

B6: MOR03085 IgG1 (antibody, V domains shown)
VH: B5 VH
VL: B5 VL
With B6, the Kd with human CD38 on cells [1] was 10 nM.

B7: MOR03086 Fab (Fab, V domains shown)
VH: QVQLVESGGGLVQPGGSLRLSCAASGFTFTSYYMHWVRQAPGKGLEWVSYIDSSGSSTYYADSVKGRFTISRDNSKNTLYLQMNSLRAEDTAVYYCARQLMPFGGYFDVWGQGTLVTVSS
VL: DIQMTQSPSSLSASVGDRVTITCRASQNISQWLNWYQQKPGKAPKLLIYGASNLQSGVPSRFSGSGSGTDFTLTISSLQPEDFATYYCQQYYDLPNTFGQGTKVEIKR
notes: Fab format
Take B7: the Kd in test [2] was 30 nM.

B8: MOR06195 IgG (antibody, V domains shown)
VH: QVQLVESGGGLVQPGGSLRLSCAASGFTFSSYYMNWVRQAPGKGLEWVSAISGNGGHTYYADSVKGRFTISRDNSKNTLYLQMNSLRAEDTAVYYCARDLPLVYTGFAYWGQGTLVTVSS
VL: DIELTQPPSVSVAPGQTARISCSGDNLRHYYVYWYQQKPGQAPVLVIYGDSKRPSGIPERFSGSNSGNTATLTISGTQAEDEADYYCQTYTGGASLVFGGGTKLTVLG
notes: copies: 2 + 2
Turning to B8, the “ELISA CD38 Fc-Fusion protein (% Reactivity of MOR03087)” value in test [3] stood at 155%.

B9: MOR06187 IgG (antibody, V domains shown)
VH: B8 VH with G53S, G56D, H57I
VL: B8 VL
In the case of B9, the “ELISA CD38 Fc-Fusion protein (% Reactivity of MOR03087)” value in test [3] stood at 145%. Besides, the EC50 (in general, the concentration at which the effect is half-maximal) with human CD38 on cells [4] stood at 9.37 nM.

B10: MOR06183 IgG (antibody, V domains shown)
VH: B8 VH with A50G, S52N, G53M, N54E, G55S, G56T, H57R, T58I
VL: B8 VL
Turning to B10, the “ELISA CD38 Fc-Fusion protein (% Reactivity of MOR03087)” value in test [3] is 106%. The molecule also displayed an EC50 with human CD38 on cells [4] of 8.91 nM.

B11: MOR06185 IgG (antibody, V domains shown)
VH: B8 VH with G53M, G56D, H57Y, T58I, Y59S
VL: B8 VL
For the molecule B11, the “ELISA CD38 Fc-Fusion protein (% Reactivity of MOR03087)” value in test [3] worked out at 142%. In the test with human CD38 on cells [4], this molecule yielded an EC50 of 11.5 nM.

B12: MOR06186 IgG (antibody, V domains shown)
VH: B8 VH with S52N, G53L, N54S, G56S, H57A, T58K
VL: B8 VL
Turning to B12, in test [3], the “ELISA CD38 Fc-Fusion protein (% Reactivity of MOR03087)” value was determined as 117%. Moreover, the response in the test with human CD38 on cells [4] was half-maximal at 15.6 nM (EC50).

B13: MOR06184 IgG (antibody, V domains shown)
VH: B8 VH with G53H, N54D, G56N, H57V, T58K
VL: B8 VL
Consider B13, for which the “ELISA CD38 Fc-Fusion protein (% Reactivity of MOR03087)” value in test [3] stood at 150%. The molecule also displayed an EC50 with human CD38 on cells [4] of 10.6 nM.

B14: MOR06188 IgG (antibody, V domains shown)
VH: B8 VH with G53T, G56W, H57Q
VL: B8 VL
As to B14, in test [3], the “ELISA CD38 Fc-Fusion protein (% Reactivity of MOR03087)” value was determined as 140%. Further, the response with human CD38 on cells [4] was half-maximal at 20.1 nM (EC50).

B15: MOR06200 IgG (antibody, V domains shown)
VH: B8 VH with G53N, G56N, H57V
VL: B8 VL
notes: copies: 2 + 2
On to B15, for which the “ELISA CD38 Fc-Fusion protein (% Reactivity of MOR03087)” value in test [3] worked out at 144%. In addition, in the test with human CD38 on cells [4], the EC50 amounted to 7.15 nM.

B16: MOR06192 IgG (antibody, V domains shown)
VH: B8 VH with A50V, G53P, N54G, G56E, H57A, T58K, Y59S
VL: B8 VL
notes: copies: 2 + 2
Take B16: the “ELISA CD38 Fc-Fusion protein (% Reactivity of MOR03087)” value in test [3] was found to be 111%.

B17: MOR06201 Fab (Fab, V domains shown)
VH: B8 VH with G53M, N54H, G56D, H57T
VL: DIELTQPPSVSVAPGQTARISCSGDNLRHYYVYWYQQKPGQAPVLVIYGDSKRPSGIPERFSGSNSGNTATLTISGTQAEDEADYYCQTYTGGASLVFGGGTKLTVL
notes: Fab format
Turning to B17, in the test with human CD38 on cells [5], it took 9 nM to reach a half-maximal effect (EC50). Besides, the Kd in test [6] is 0.0186 nM; in test [7], 6.81 nM.

B18: MOR06201 IgG (antibody, V domains shown)
VH: B8 VH with G53M, N54H, G56D, H57T
VL: B8 VL
notes: copies: 2 + 2
In the case of B18, the “ELISA CD38 Fc-Fusion protein (% Reactivity of MOR03087)” value in test [3] worked out at 137%.

B19: MOR06197 IgG (antibody, V domains shown)
VH: B8 VH with G53M, N54D, G56V, H57Y, T58K
VL: B8 VL
notes: copies: 2 + 2
Turning to B19, the “ELISA CD38 Fc-Fusion protein (% Reactivity of MOR03087)” value in test [3] was 138%.

B20: MOR03101 Fab (Fab, V domains shown)
VH: QVQLKESGPALVKPTQTLTLTCTFSGFSLSTSRVGVSWIRQPPGKALEWLAHIDWNDDKYYSTSLKTRLTISKDTSKNQVVLTMTNMDPVDTATYYCAREDRLLGGYGYDVWGQGTLVTVSS
VL: DIELTQPPSVSVAPGQTARISCSGDSLGSYYVHWYQQKPGQAPVLVIGDDTKRPSGIPERFSGSNSGNTATLTISGTQAEDEADYYCGSRTGYNNSFVFGGGTKLTVLG
notes: Fab format
In test [2], B20 showed a Kd of 314 nM.

B21: MOR03129 Fab (Fab, V domains shown)
VH: QVQLVESGGGLVQPGGSLRLSCAASGFTFSNYSMNWVRQAPGKGLEWVSYIYGGGSYTYYADSVKGRFTISRDNSKNTLYLQMNSLRAEDTAVYYCARQAGMYFDVWGQGTLVTVSS
VL: DIELTQPPSVSVAPGQTARISCSGDNLGSKVVSWYQQKPGQAPVLVIYYDNKRPSGIPERFSGSNSGNTATLTISGTQAEDEADYYCQSYTFESGSVVFGGGTKLTVLG
notes: Fab format
In test [2], B21 yielded a Kd of 43 nM.

B22: MOR03131 Fab (Fab, V domains shown)
VH: QVQLKESGPALVKPTQTLTLTCTFSGFSLSNSGVGVGWIRQPPGKALEWLADIYSDTTKRYSTSLKTRLTISKDTSKNQVVLTMTNMDPVDTATYYCARYGEAYFDYWGQGTLVTVSS
VL: DIELTQPPSVSVAPGQTARISCSGDNLGNFYVHWYQQKPGQAPVLVIYEDSNRPSGIPERFSGSNSGNTATLTISGTQAEDEADYYCSSWDMYRTIFVFGGGTKLTVLG
notes: Fab format
Turning to B22, the Kd in test [2] was 451 nM.

B23: MOR06204 IgG (antibody, V domains shown)
VH: QVQLVESGGGLVQPGGSLRLSCAASGFTFSSYAMNWVRQAPGKGLEWVSHIRKKNTSYTTEYAASVKGRFTISRDNSKNTLYLQMNSLRAEDTAVYYCAREDGSYMTDYFAYWGQGTLVTVSS
VL: DIELTQPPSVSVAPGQTARISCSGDNIGHYYVSWYQQKPGQAPVLVIYSDSNRPSGIPERFSGSNSGNTATLTISGTQAEDEADYYCQSYNGTYVFGGGTKLTVLG
notes: copies: 2 + 2
Consider B23, for which the “ELISA CD38 Fc-Fusion protein (% Reactivity of MOR03087)” value in test [3] is 56%.

B24: MOR06214 IgG (antibody, V domains shown)
VH: QVQLVESGGGLVQPGGSLRLSCAASGFTFSSYAMNWVRQAPGKGLEWVSNIQRVGSTYYADSVKGRFTISRDNSKNTLYLQMNSLRAEDTAVYYCAREDGSYMTDYFAYWGQGTLVTVSS
VL: B23 VL
notes: copies: 2 + 2
Take B24: in test [3], the “ELISA CD38 Fc-Fusion protein (% Reactivity of MOR03087)” value worked out at 109%.
